From patent publication US20250145689A1 (CIRCULAR COMMITMENT, published 2025)
One block for each molecule: values may come before it.

Key:
[1] = target: Recombinant water soluble mouse PLVAP (extracellular domain, residues 48-438) (mouse) (UniProt Q91VC4); assay: competitive ELISA on plate-coated mouse PLVAP; competitor biotinylated MECA32 mAb
[2] = target: Recombinant water soluble mouse PLVAP (extracellular domain, residues 48-438) (mouse) (UniProt Q91VC4); assay: Scatchard analysis; plate-coated recombinant mouse PLVAP, bound Fab-TF measured by chromogenic TF activity; mean ± SD of 6 batches
[3] = target: Recombinant water soluble mouse PLVAP (extracellular domain, residues 48-438) (mouse) (UniProt Q91VC4); assay: told in the legend of the competitive ELISA; method of the comparison not stated
[4] = target: T1, Recombinant water soluble human PLVAP (extracellular domain, residues 51-442) (human) (UniProt Q9BX97); assay: Scatchard analysis; plate-coated recombinant human PLVAP, bound Fab-TF measured by chromogenic TF activity; mean ± SD of 3 batches
T1 sequence: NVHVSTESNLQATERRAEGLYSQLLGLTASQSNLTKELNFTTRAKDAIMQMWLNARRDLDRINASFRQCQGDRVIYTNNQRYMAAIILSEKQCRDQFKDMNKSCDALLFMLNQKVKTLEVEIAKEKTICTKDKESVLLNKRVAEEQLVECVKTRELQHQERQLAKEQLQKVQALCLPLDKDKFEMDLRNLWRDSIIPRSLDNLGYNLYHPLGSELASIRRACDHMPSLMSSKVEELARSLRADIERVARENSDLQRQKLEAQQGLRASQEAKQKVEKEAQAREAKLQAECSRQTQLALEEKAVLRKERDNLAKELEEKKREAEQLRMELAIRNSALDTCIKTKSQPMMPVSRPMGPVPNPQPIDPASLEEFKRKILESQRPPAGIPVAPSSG

[5] = target: T2, Recombinant water soluble mouse PLVAP (extracellular domain, residues 48-438) (mouse, UniProt Q91VC4 48-438); assay: ELISA on plate-coated mouse PLVAP, detected with biotinylated anti-hTF antibody
T2 construct: The cDNA clone (Invitrogen) is not tied to NP_115774.2 in words; His-tag not reported as removed; also called mPLVAP; His-mPLVAP; not shown: His-tag of the pET-15b vector
T2 sequence: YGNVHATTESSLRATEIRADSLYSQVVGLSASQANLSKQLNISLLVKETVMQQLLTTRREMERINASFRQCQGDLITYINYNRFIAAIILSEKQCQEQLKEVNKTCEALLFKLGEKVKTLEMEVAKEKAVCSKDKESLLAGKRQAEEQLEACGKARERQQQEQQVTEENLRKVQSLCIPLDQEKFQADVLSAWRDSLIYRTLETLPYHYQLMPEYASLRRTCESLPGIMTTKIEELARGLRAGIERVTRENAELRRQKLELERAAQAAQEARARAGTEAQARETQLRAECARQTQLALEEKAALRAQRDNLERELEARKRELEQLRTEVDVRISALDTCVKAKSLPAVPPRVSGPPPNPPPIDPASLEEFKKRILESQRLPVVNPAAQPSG

Molecule: Rat anti-mouse PLVAP MECA32 monoclonal antibody
potency in competition against MECA32-Fab-TF [1]: 1 log

Molecule: Fab fragment of MECA32 anti-mouse PLVAP monoclonal antibody co-expressing human tissue factor
Kd [2]: 57.2 nM | binding affinity against MECA32 mAb [3]: 1 log lower

The next lines start with the values.

Kd [4]: 30.7 nM
B1: Recombinant Fab fragment of CSRO2 anti-human PLVAP monoclonal antibody co-expressing water-soluble human tissue factor (Fab, part only; not given: Humanized CSRO2 kappa light chain, part only)
heavy: MQVQLVQSGSELKKPGASVKVSCKASGYTFTSNYINWVRQAPGQGLEWMGNIYPSDGFTNYNQKFKDRVTITVDKSTSTAYMELSSLRSEDTAVYYCTRNFDVWGQGTTVTVSSASTKGPSVFPLAPCSRSTSESTAALGCLVKDYFPEPVTVSWNSGALTSGVHTFPAVLQSSGLYSLSSVVTVPSSSLGTKTYTCNVDHKPSNTKVDKRVESKYGPPCPSCPGGGGSGGGGSGGGGSSGTTNTVAAYNLTWKSTNFKTILEWEPKPVNQVYTVQISTKSGDWKSKCFYTTDTECDLTDEIVKDVKQTYLARVFSYPAGNVESTGSAGEPLYENSPEFTPYLETNLGQPTIQSFEQVGTKVNVTVEDERTLVRRNNTFLSLRDVFGKDLIYTLYYWKSSSSGKKTAKTNTNEFLIDVDKGENYCFSVQAVIPSRTVNRKSTDSPVECMGQEKGEFRE

binding result [5]: no binding
B2: Soluble human tissue factor without antibody (other)
chain: SGTTNTVAAYNLTWKSTNFKTILEWEPKPVNQVYTVQISTKSGDWKSKCFYTTDTECDLTDEIVKDVKQTYLARVFSYPAGNVESTGSAGEPLYENSPEFTPYLETNLGQPTIQSFEQVGTKVNVTVEDERTLVRRNNTFLSLRDVFGKDLIYTLYYWKSSSSGKKTAKTNTNEFLIDVDKGENYCFSVQAVIPSRTVNRKSTDSPVECMGQEKGEFRE
notes: also called hTF; control soluble hTF
